Measured values taken from patent US20150376282A1.

Columns and labels:
[1] = biological target: 2F8-HG-L236V (human); test: non-covalent nano-ESI MS, 0.01-10 µM, self-association
[2] = biological target: 2F8-HG-Y275A (human); test: as above
[3] = biological target: 2F8-HG (human); test: non-covalent nano-ESI MS, 1 µM, self-association
[4] = biological target: 2F8-HG (human); test: non-covalent nano-ESI MS, monomer/dimer equilibrium (CH3-CH3 dimerisation of half-molecules)
[5] = biological target: 2F8-HG-F405A (human); test: non-covalent nano-ESI MS, 0.01-10 µM, self-association

Q: How did the percent monomeric at low concentrations [1] turn out when 2F8-HG-L236V (antibody) was run?
A: Its percent monomeric at low concentrations is 100%.

Q: With 2F8-HG-Y275A (antibody) as the molecule, how does the percent monomeric at low concentrations [2] read?
A: The percent monomeric at low concentrations was 100%.

Q: Which percentage molecules present as monomers [3] does the source give for 2F8-HG (antibody) here?
A: Its percentage molecules present as monomers is 15%.

Q: And the Kd [4]?
A: Its Kd is 50 nM.

B1: 2F8-HG-F405A (antibody, part only; not given: 2F8 VH and light chain, part only)
heavy, part: ASTKGPSVFPLAPCSRSTSESTAALGCLVKDYFPEPVTVSWNSGALTSGVHTFPAVLQSSGLYSLSSVVTVPSSSLGTKTYTCNVDHKPSNTKVDKRVAPEFLGGPSVFLFPPKPKDTLMISRTPEVTCVVVDVSQEDPEVQFNWYVDGVEVHNAKTKPREEQFNSTYRVVSVLTVLHQDWLNGKEYKCKVSNKGLPSSIEKTISKAKGQPREPQVYTLPPSQEEMTKNQVSLTCLVKGFYPSDIAVEWESNGQPENNYKTTPPVLDSDGSFALYSRLTVDKSRWQEGNVFSCSVMHEALHNHYTQKSLSLSLGK
Q: B1 was tested. Which percent monomeric at low concentrations [5] did it give?
A: Its percent monomeric at low concentrations is 100%.
